In this test the target is SARS-CoV-2 Spike蛋白 (去除末端19个氨基酸), 新冠假病毒表面 (SARS-CoV-2, UniProt P0DTC2 14-1254). Kind of test: cell-based or functional assay.

B1: 人鼠嵌合全抗体mhC3 (antibody, V domains shown)
VH: EVQLVESGGDLVKPGGSLKLSCAASGFTFNTYAMNWVRQTPGKGLEWVARIRSKSNNYATYYADSVKDRFTISRDDSQSMLYLQMNNLKTEDTAMYYCVTPYYGNYADWFTYWGQGTSVTVSS
VL: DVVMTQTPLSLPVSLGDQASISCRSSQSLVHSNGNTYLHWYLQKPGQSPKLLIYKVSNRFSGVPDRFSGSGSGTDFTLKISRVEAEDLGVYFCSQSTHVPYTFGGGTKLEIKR
notes: also called mhC3抗体; C3 (图5、图6)
With B1, the “中和新冠假病毒 EC50 (luciferase, Huh7细胞)” value was found to be 0.223 µg/mL.

For the origin of these results see patent publication CN111995674A (INST MILITARY MEDICINE ACADEMY MILITARY SCIENCES PLA, dated 2020).
